According to patent US20120207760A1:
“And” between values parts separate entries of the source, which are not always exact repeats. Equal values may be shown once.

How the values were obtained:
[1] = biological target: recombinant homotrimeric HA, A/Wisconsin/67/05 H3N2 (Influenza A virus A/Wisconsin/67/05 (H3N2)); experiment: trimeric HA microarray, transfection set 5
[2] = biological target: recombinant homotrimeric HA, A/Solomon Islands/3/06 H1N1 (Influenza A virus A/Solomon Islands/3/06 (H1N1)); experiment: trimeric HA microarray, transfection set 5
[3] = biological target: hemagglutinin (HA) on live influenza A virus A/Wisconsin/67/05 H3N2 (Influenza A virus A/Wisconsin/67/2005 (H3N2)); experiment: cell-based or functional assay
[4] = biological target: hemagglutinin (HA) on live influenza A virus A/Solomon Islands/3/06 H1N1 (Influenza A virus A/Solomon Islands/3/2006 (H1N1)); experiment: cell-based or functional assay
[5] = biological target: hemagglutinin (HA) on live influenza A virus A/California/4/09 H1N1 (Influenza A virus A/California/04/2009 (H1N1)); experiment: cell-based or functional assay
[6] = biological target: hemagglutinin (HA) of influenza A/Solomon Islands/3/06 H1N1 (Influenza A virus A/Solomon Islands/3/2006 (H1N1)); experiment: ELISA, inactivated whole virions coated; transfection supernatant set 3
[7] = biological target: hemagglutinin (HA) of influenza A/Japan/305/57 H2N2 (Influenza A virus A/Japan/305/1957 (H2N2)) (UniProt P03451); experiment: as above
[8] = biological target: hemagglutinin (HA) of influenza A/Wisconsin/67/05 H3N2 (Influenza A virus A/Wisconsin/67/2005 (H3N2)); experiment: as above
[9] = biological target: recombinant homotrimeric HA, A/California/4/09 H1N1 (Influenza A virus A/California/4/09 (H1N1)); experiment: trimeric HA microarray, transfection set 1
[10] = biological target: recombinant homotrimeric HA, A/swine/Ontario/01911-2/99 H4N6 (Influenza A virus A/swine/Ontario/01911-2/99 (H4N6)); experiment: trimeric HA microarray, transfection set 1
[11] = biological target: recombinant homotrimeric HA, A/northern shoveler/California/HKWF115/07 (Influenza A virus A/northern shoveler/California/HKWF115/2007 (H6N1)); experiment: trimeric HA microarray, transfection set 1
[12] = biological target: recombinant homotrimeric HA, A/Indonesia/5/05 H5N1 (Influenza A virus A/Indonesia/5/05 (H5N1)); experiment: trimeric HA microarray, transfection set 1
[13] = biological target: recombinant homotrimeric HA, A/Wisconsin/67/05 H3N2 (Influenza A virus A/Wisconsin/67/05 (H3N2)); experiment: trimeric HA microarray, transfection set 1
[14] = biological target: recombinant homotrimeric HA, A/Anhui/1/05 H5N1 (Influenza A virus A/Anhui/1/05 (H5N1)); experiment: trimeric HA microarray, transfection set 1
[15] = biological target: recombinant homotrimeric HA, A/Japan/305/57 H2N2 (Influenza A virus A/Japan/305/57 (H2N2)); experiment: trimeric HA microarray, transfection set 1
[16] = biological target: recombinant homotrimeric HA, A/South Carolina/1/18 H1N1 (Influenza A virus A/South Carolina/1/18 (H1N1)); experiment: trimeric HA microarray, transfection set 1
[17] = biological target: recombinant homotrimeric HA, A/Vietnam/1203/04 H5N1 (Influenza A virus A/Vietnam/1203/04 (H5N1)); experiment: trimeric HA microarray, transfection set 1
[18] = biological target: recombinant homotrimeric HA, A/common magpie/Hong Kong/5052/07 H5N1 (Influenza A virus A/common magpie/Hong Kong/5052/07 (H5N1)); experiment: trimeric HA microarray, transfection set 1
[19] = biological target: recombinant homotrimeric HA, A/Solomon Islands/3/06 H1N1 (Influenza A virus A/Solomon Islands/3/06 (H1N1)); experiment: trimeric HA microarray, transfection set 1
[20] = biological target: recombinant homotrimeric HA, A/Egypt/3300-NAMRU3/08 H5N1 (Influenza A virus A/Egypt/3300-NAMRU3/08 (H5N1)); experiment: trimeric HA microarray, transfection set 1
[21] = biological target: recombinant homotrimeric HA, A/Netherlands/219/03 H7N7 (Influenza A virus A/Netherlands/219/03 (H7N7)); experiment: trimeric HA microarray, transfection set 1
[22] = biological target: recombinant homotrimeric HA, A/Hong Kong/2108/03 H9N2 (Influenza A virus A/Hong Kong/2108/03 (H9N2)); experiment: trimeric HA microarray, transfection set 1
[23] = biological target: recombinant homotrimeric HA, A/chicken/Vietnam/NCVD-016/08 H5N1 (Influenza A virus A/chicken/Vietnam/NCVD-016/08 (H5N1)); experiment: trimeric HA microarray, transfection set 1
[24] = biological target: hemagglutinin (HA) of influenza A/Solomon Islands/3/06 H1N1 (Influenza A virus A/Solomon Islands/3/2006 (H1N1)); experiment: ELISA, inactivated whole virions coated; transfection supernatant set 1
[25] = biological target: hemagglutinin (HA) of influenza A/Wisconsin/67/05 H3N2 (Influenza A virus A/Wisconsin/67/2005 (H3N2)); experiment: as above
[26] = biological target: recombinant homotrimeric HA, A/California/4/09 H1N1 (Influenza A virus A/California/4/09 (H1N1)); experiment: trimeric HA microarray, transfection set 4
[27] = biological target: recombinant homotrimeric HA, A/swine/Ontario/01911-2/99 H4N6 (Influenza A virus A/swine/Ontario/01911-2/99 (H4N6)); experiment: trimeric HA microarray, transfection set 4
[28] = biological target: recombinant homotrimeric HA, A/Indonesia/5/05 H5N1 (Influenza A virus A/Indonesia/5/05 (H5N1)); experiment: trimeric HA microarray, transfection set 4
[29] = biological target: recombinant homotrimeric HA, A/Wisconsin/67/05 H3N2 (Influenza A virus A/Wisconsin/67/05 (H3N2)); experiment: trimeric HA microarray, transfection set 4
[30] = biological target: recombinant homotrimeric HA, A/Japan/305/57 H2N2 (Influenza A virus A/Japan/305/57 (H2N2)); experiment: trimeric HA microarray, transfection set 4
[31] = biological target: recombinant homotrimeric HA, A/South Carolina/1/18 H1N1 (Influenza A virus A/South Carolina/1/18 (H1N1)); experiment: trimeric HA microarray, transfection set 4
[32] = biological target: recombinant homotrimeric HA, A/Vietnam/1203/04 H5N1 (Influenza A virus A/Vietnam/1203/04 (H5N1)); experiment: trimeric HA microarray, transfection set 4
[33] = biological target: recombinant homotrimeric HA, A/Solomon Islands/3/06 H1N1 (Influenza A virus A/Solomon Islands/3/06 (H1N1)); experiment: trimeric HA microarray, transfection set 4

Substance: TCN-202 (2N9) (antibody)
- Trimeric HA Binding RLU [1]: 581 RLU
- Trimeric HA Binding RLU [2]: 525 RLU
- % Neutralization [3]: 17.8% and 0%
- % Neutralization [4]: 0% and 7%
- % Neutralization [5]: 0%
- OD450 [6]: 0.1 OD450
- OD450 [7]: 0.08 OD450
- OD450 [8]: 0.08 OD450
- Trimeric HA Binding RLU [9]: 20 RLU
- Trimeric HA Binding RLU [10]: 29 RLU
- Trimeric HA Binding RLU [11]: 13 RLU
- Trimeric HA Binding RLU [12]: 57 RLU
- Trimeric HA Binding RLU [13]: 27 RLU
- Trimeric HA Binding RLU [14]: 20 RLU
- Trimeric HA Binding RLU [15]: 27 RLU
- Trimeric HA Binding RLU [16]: 32 RLU
- Trimeric HA Binding RLU [17]: 37 RLU
- Trimeric HA Binding RLU [18]: 21 RLU
- Trimeric HA Binding RLU [19]: 67 RLU
- Trimeric HA Binding RLU [20]: 76 RLU
- Trimeric HA Binding RLU [21]: 55 RLU
- Trimeric HA Binding RLU [22]: 24 RLU
- Trimeric HA Binding RLU [23]: 14 RLU
- OD450 [24]: 0.07 OD450
- OD450 [25]: 0.07 OD450
- Trimeric HA Binding RLU [26]: 94 RLU
- Trimeric HA Binding RLU [27]: 157 RLU
- Trimeric HA Binding RLU [28]: 19 RLU
- Trimeric HA Binding RLU [29]: 125 RLU
- Trimeric HA Binding RLU [30]: 334 RLU
- Trimeric HA Binding RLU [31]: 27 RLU
- Trimeric HA Binding RLU [32]: 67 RLU
- Trimeric HA Binding RLU [33]: 34 RLU
